Experimental data as given in paper PMC7160673 (2020).
Like-named read-outs stand apart in the source and are kept apart here. Where no end group is shown, it is not given here. [ ]: non-standard residue; d: D form. The star is where a group is joined. 5FAM = O=C1OC2(c3ccc(O)cc3Oc3cc(O)ccc32)c2ccc(C(=O)*)cc21; Lys(Me3) = C[N+](C)(C)CCCC[C@H](N)C(=O)O

T1: Chromodomain Y-like protein 2 chromodomain
T1 chain: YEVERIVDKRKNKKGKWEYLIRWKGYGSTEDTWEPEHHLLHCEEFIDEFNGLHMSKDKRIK

T2: M Phase Phosphoprotein 8 chromodomain (UniProt Q99549 55-116)
T2 chain: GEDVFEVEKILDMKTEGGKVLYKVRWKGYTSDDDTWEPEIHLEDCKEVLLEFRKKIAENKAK


Assays:
Test in all cases: FP
[1] = molecular target: T1, Chromodomain Y-like protein 2 …
[2] = molecular target: T2, M Phase Phosphoprotein 8 chromodomain
[3] = molecular target: T2, M Phase Phosphoprotein 8 chromodomain

Row | Binder | Kd [1] [µM] | Kd [2] [µM] | Kd [3] [µM]
1 | 5FAM-TAR[Lys(Me3)]STG (also: flanking glycines, number not given here) [FAM-TAR(Kme3)STG peptide (H3K9me3)] | 18.4 | 11.5 | –
2 | 5FAM-WAY[Lys(Me3)]TGK (also: flanking glycines, number not given here) [FAM-WAY(Kme3)TGK peptide] | – | – | 1.37
